Key:
prostate cancer cells = conditions: cited from earlier work
osteoclasts = conditions: cited from earlier work
[1] = Glycosyltransfering reaction with crude enzyme, substrate CK; assay type: biochemical; conditions: 35° C., 12 hrs, TLC; for glycosylation of C3-OH of CK (product F2): crude enzyme of Example 11; for substrate that could be catalyzed: CK: crude enzyme: lysate supernatant of recombinant E. coli, UDP-glucose
Protocol: (§1) According to the method as in Example 4, the cell lysate of recombinant yeasts expressing gGT13 and gGT30 were used to catalyze PPD and PPT.
(§2) The glycosyltransfering reactions of ginsenosides and ginsengenins were catalyzed by using the lysis supernatant of the recombinant yeasts expressing 3GT1, 3GT2, 3GT3 and 3GT4 as crude enzymes. The lysis supernatant of recombinant E. coli expressing empty vectors was used as control. The 100 μL reaction system is shown as Table 3. The reaction was conducted under 35° C. for 12 hrs, then stopped by adding 100 μL of butanol. The product were extracted, dried in vacuum, and dissolved in methanol.

[2] = Glycosyltransfering reaction with crude enzyme, substrate PPT; assay type: biochemical; conditions: crude enzyme: lysate supernatant of recombinant E. coli; UDP-glucose, 35° C., 12 hrs; TLC
[3] = Glycosyltransfering reaction with crude enzyme, substrate 20(R)-PPD; assay type: biochemical; conditions: 35° C., 12 hrs, TLC; for catalysis of 20(R)-PPD (product 20(R)-ginsenoside Rh2): crude enzyme of Example 11; for substrate that could be catalyzed: 20(R)-PPD: crude enzyme: lysate supernatant of recombinant E. coli, UDP-glucose
[4] = Glycosyltransfering reaction with crude enzyme, substrate 25-OH-PPD; assay type: biochemical; conditions: 35° C., 12 hrs, TLC; for glycosylation of C3-OH of 25-OH-PPD (product 3-O-β-(D-glucopyranosyl)-25-OH-PPD): crude enzyme of Example 11; for substrate that could be catalyzed: 25-OH-PPD: crude enzyme: lysate supernatant of recombinant E. coli, UDP-glucose
Protocol: as §2

[5] = Glycosyltransfering reaction with crude enzyme, substrate F1; assay type: biochemical; conditions: 35° C., 12 hrs, TLC; for glycosylation of C3-OH of F1 (product 3-O-β-(D-glucopyranosyl)-F1): crude enzyme of Example 11; for substrate that could be catalyzed: F1: crude enzyme: lysate supernatant of recombinant E. coli, UDP-glucose
Protocol: as §1
The lysis supernatant of recombinant E. coli expressing empty vectors was used as control. The 100 μL reaction system is shown as Table 3. The reaction was conducted under 35° C. for 12 hrs, then stopped by adding 100 μL of butanol. The product were extracted, dried in vacuum, and dissolved in methanol.

[6] = Glycosyltransfering reaction with crude enzyme, substrate PPT; assay type: biochemical; conditions: crude enzyme of Example 11; 35° C., 12 hrs; TLC
Protocol: (§3) The lysate supernatant of the recombinant yeasts expressing the empty vector was used as control.
(§4) The reaction was conducted under 35° C. for 12 hrs, then stopped by adding 100 μL of butanol. The product were extracted, dried in vacuum, and dissolved in methanol.
(§5) The reaction products were first detected by thin layer chromatography (TLC).
(§6) The converted products of gGT25 were further identified by HPLC (FIG. 10 and FIG. 11). The retention time of peak 2 was identical to that of the CK standard sample; the retention time of peak 3 was identical to that of PPD. […] Peak 1, also present in the profile of the negative control, indicated its irrelevance to the conversion of PPD. 3 peaks were shown in FIG. 11, the retention time of peak 1 was identical to that of F1 standard sample and peak 3 was identical to that of PPT. […] Peak 2, also present in the profile of the negative control, indicated its irrelevance to the conversion of PPT.
as §1, §2

[7] = Glycosyltransfering reaction with crude enzyme, substrate lanosterol; assay type: biochemical; conditions: 35° C., 12 hrs, TLC; for glycosylation of C3-OH of lanosterol (product 3-O-β-(D-glucopyranosyl)-lanosterol): crude enzyme of Example 11; for substrate that could be catalyzed: lanosterol: crude enzyme: lysate supernatant of recombinant E. coli, UDP-glucose
Protocol: as §2

[8] = Glycosyltransfering reaction with crude enzyme, substrate DM; assay type: biochemical; conditions: 35° C., 12 hrs, TLC; for glycosylation of C3-OH of DM (product 3-O-β-(D-glucopyranosyl)-Dammarenediol II): crude enzyme of Example 11; for substrate that could be catalyzed: DM: crude enzyme: lysate supernatant of recombinant E. coli, UDP-glucose
Protocol: as §3, §4, §5, §2

[9] = Glycosyltransfering activities on ginsengenins and saponins: glycosylation site and specificity (summary); assay type: biochemical; conditions: for effect of the steric configuration of the hydroxyl or glycosyl at C20 on catalytic activity: 20(S)-type versus 20(R)-type substrates; for glycosylation site: C-3: Table 2, tetracyclic triterpenoid substrates; for substrate spectrum / specificity: comparison of 3GT1, 3GT2, 3GT3 and 3GT4, Table 6
Protocol: More than 100 predicted cDNA sequences of glycosyltransferases were extracted from the published expression profile data of the Panax plant. 60 cDNAs with full length were cloned, expressed, and subjected to the analysis of glycosyltransfering reaction.
as §3, §4, §2
The lysate supernatant of the recombinant yeast expressing empty vectors was used as control. The reaction was conducted under 35° C. for 12 hrs, and then stopped by adding 100 μL of butanol. The product were extracted, dried in vacuum, and dissolved in methanol.
The glycosyltransfering reactions of ginsenosides Rh2 and F2 were catalyzed by using the lysate supernatant of the recombinant yeasts expressing 3GT1, 3GT2, 3GT3 and 3GT4 as crude enzymes. The 100 μL reaction system is shown as Table 3. The reaction was conducted under 35° C. for 12 hrs, and then stopped by adding 100 μL of butanol. The product were extracted, dried in vacuum, and dissolved in methanol.

[10] = Glycosyltransfering reaction with crude enzyme, substrate PPD; assay type: biochemical; conditions: crude enzyme: lysate supernatant of recombinant E. coli; UDP-glucose, 35° C., 12 hrs; TLC
Protocol: as §3, §4, §5, §6, §1
The cell lysis supernatant of the recombinant E. coli was used as crude enzyme to conduct the glycosyltransfering reaction, and the reaction condition was identical to that of Example 4.
The reaction was conducted under 35° C. for 12 hrs. 100 μL of butanol was added to stop the reaction and the products were extracted. Upon vacuum drying, the product was dissolved by methanol. TLC was first used to detect the reaction product.
as §2
The reaction was conducted under 35° C. for 12 hrs, and then stopped by adding 100 μL of butanol. The product were extracted, dried in vacuum, and dissolved in methanol. The reaction products were first detected by thin layer chromatography (TLC) (FIG. 35).

Row | Molecule | glycosylation of C3-OH of CK (product F2) [1] | substrate that could be catalyzed: CK [1] | substrate that could be catalyzed: PPT [2] | catalysis of 20(R)-PPD (product 20(R)-ginsenoside Rh2) [3] | substrate that could be catalyzed: 20(R)-PPD [3] | glycosylation of C3-OH of 25-OH-PPD (product 3-O-β-(D-glucopyranosyl)-25-OH-PPD) [4] | substrate that could be catalyzed: 25-OH-PPD [4] | glycosylation of C3-OH of F1 (product 3-O-β-(D-glucopyranosyl)-F1) [5] | substrate that could be catalyzed: F1 [5] | glycosylation of C3-OH of PPT (product 3-O-β-(D-glucopyranosyl)-PPT) [6] | glycosylation of C3-OH of lanosterol (product 3-O-β-(D-glucopyranosyl)-lanosterol) [7] | substrate that could be catalyzed: lanosterol [7] | glycosylation of C3-OH of DM (product 3-O-β-(D-glucopyranosyl)-Dammarenediol II) [8] | substrate that could be catalyzed: DM [8] | effect of the steric configuration of the hydroxyl or glycosyl at C20 on catalytic activity [9] | glycosylation site: C-3 [9] | substrate spectrum / specificity [9] | substrate that could be catalyzed: PPD [10] | further results
1 | CC(C)=CCC[C@@](C)(O)[C@H]1CC[C@]2(C)[C@@H]1[C@H](O)C[C@@H]1[C@@]3(C)CC[C@H](O[C@@H]4O[C@H](CO)[C@@H](O)[C@H](O)[C@H]4O)C(C)(C)[C@@H]3CC[C@]12C [R-type ginsenoside Rh2, 3-O-β-(D-glucopyranosyl)-20(R)-protopanaxadiol] | – | – | – | – | – | – | – | – | – | – | – | – | – | – | – | – | – | – | inhibition of prostate cancer cells (prostate cancer cells): quite poor; cytotoxicity to osteoclasts (osteoclasts): without any cytotoxicity; inhibition of the generation of osteoclasts (osteoclasts): selectively inhibit
2 | 3GT1: glycosyltransferase protein with 495 amino acids, SEQ ID NO.: 22; homology with UGT73C10 of Barbarea vulgaris higher than 99% (protein, listed as Barbarea vulgaris, 3GT1) MVSEITHKSYPLHFVLFPFMAQGHMIPMVDIARLLAQRGVKITIVTTPHNAARFENVLSRAIESGLPISIVQVKLPSQEAGLPEGNETFDSLVSTKLLVPFFKAVNMLEEPVQKLFEEMSPQPSCIISDFCLPYTSKIAKKFNIPKILFHGMCCFCLLCMHVLRKNREILENLKSDKEHFVVPYFPDRVEFTRPQVPLATYVPGEWHEIKEDMVEADKTSYGVIVNTYQELEPAYANGYKEARSGKAWTIGPVSLCNKVGADKAERGNKADIDQDECLKWLDSKEEGSVLYVCLGSICSLPLSQLKELGLGLEESQRPFIWVVRGWEKNKELLEWFSESGFEERVKDRGLLIKGWSPQMLILAHHSVGGFLTHCGWNSTLEGITSGVPLLTWPLFGDQFCNQKLVVQVLKVGVSAGVEEVTNWGEEEKIGVLVDKEGVKKAVEELMGESDDAKEIRKRVKELGQLAHKAVEEGGSSHSNITSLLEDIMQLAQPNN | further glycosylating its C3-OH | ✓ | ✓ | could catalyze | ✓ | could be glycosylated | ✓ | could be glycosylated | ✓ | could be glycosylated | could be glycosylated | ✓ | could be glycosylated | ✓ | not affected | ✓ | most number of substrates | ✓ | –
3 | 3GT2: glycosyltransferase protein with 495 amino acids, SEQ ID NO.: 24; homology with UGT73C12 of Barbarea vulgaris higher than 99% (protein, listed as Barbarea vulgaris, 3GT2) MVSEITHKSYPLHFVLFPFMAQGHMIPMVDIARLLAQRGVKITIVTTPHNAARFKNVLSRAIESGLPISIVQVKLPSQEAGLPEGNETLDSLVSMELMIHFLKAVNMLEEPVQKLFEEMSPQPSCIISDFCLPYTSKIAKKFNIPKILFHGMCCFCLLCMHILRKNREIVENLKSDKEHFVVPYFPDRVEFTRPQVPVATYVPGDWHEITEDMVEADKTSYGVIVNTYQELEPAYANDYKEARSGKAWTIGPVSLCNKVGADKAERGNKADIDQDECLKWLNSKEEGSVLYVCLGSICNLPLSQLKELGLGLEESQRPFIWVIRGWEKNKELHEWFSESGFEERIKDRGLLIKGWAPQMLILSHHSVGGFLTHCGWNSTLEGLTAGLPLLTWPLFADQFCNEKLAVQVLKAGVSAGVDQPMKWGEEEKIGVLVDKEGVKKAVEELMGESDDAKEIRRRAKELGELAHKAVEEGGSSHSNITSLLEDIMQLAQSNN | further glycosylating its C3-OH | ✓ | ✓ | could catalyze | ✓ | could be glycosylated | ✓ | could be glycosylated | ✓ | could be glycosylated | could be glycosylated | ✓ | could be glycosylated | ✓ | not affected | ✓ | most number of substrates | ✓ | –
4 | 3GT3: glycosyltransferase protein with 497 amino acids, SEQ ID NO.: 41; homology with a Medicago truncatula glycosyltransferase higher than 99% (protein, listed as Medicago truncatula, 3GT3) MEGVEVEQPLKVYFIPFLASGHMIPLFDIATMFASRGQQVTVITTPANAKSLTKSLSSDAPSFLRLHTVDFPSQQVGLPEGIESMSSTTDPTTTWKIHTGAMLLKEPIGDFIENDPPDCIISDSTYPWVNDLADKFQIPNITFNGLCLFAVSLVETLKTNNLLKSQTDSDSDSSSFVVPNFPHHITLCGKPPKVIGIFMGMMLETVLKSKALIINNFSELDGEECIQHYEKATGHKVWHLGPTSLIRKTAQEKSERGNEGAVNVHESLSWLDSERVNSVLYICFGSINYFSDKQLYEMACAIEASGHPFIWVVPEKKGKEDESEEEKEKWLPKGFEERNIGKKGLIIRGWAPQVKILSHPAVGGFMTHCGGNSTVEAVSAGVPMITWPVHGDQFYNEKLITQFRGIGVEVGATEWCTSGVAERKKLVSRDSIEKAVRRLMDGGDEAENIRLRAREFGEKAIQAIQEGGSSYNNLLALIDELKRSRDLKRLRDLKLDD | further glycosylating its C3-OH | – | ✓ | – | – | could be glycosylated | ✓ | – | – | could be glycosylated | – | – | – | – | – | ✓ | least number of substrates | ✓ | –
